Laboratory results as given in the supplement of paper PMC9732359.
± gives the uncertainty stated by the source.

Assay: protein stability index of a GFP-peptide fusion (yeast GPS) (PSI 1-4); higher = more stable; sorted into four equal gates, so the index is relative within each strain
Summary of the method: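 Tiled yeast protein peptides of 17 residues were each joined downstream of GFP, on plasmids that also express Cherry. The pooled library was maintained in yeast, and mid-log cultures in leucine-free medium were sorted into four equal gates on the GFP/Cherry ratio. Plasmids from every gate were amplified by PCR and sequenced on Illumina, with barcodes linking reads to strains. The protein stability index of a peptide is its gate-number-weighted read frequency summed over the gates.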

Sequence	protein stability index (doa10∆)	protein stability index (pdr5∆)	protein stability index (san1∆)	protein stability index (ubr1∆)
NKRLCDEIATIQSKRLR [RPS17A]	2.75 ± 0.081	2.94 ± 0.063	3.1 ± 0.046	3.22 ± 0.071
VSKPAFSFGAKANEKKE [YJL041W/NSP1]	3.07 ± 0.15	2.78 ± 0.24	2.95 ± 0.11	2.94 ± 0.16
GLCMLGTGKPEAIHDMF [RPN2]	2.75 ± 0.15	3.46 ± 0.29	3.19 ± 0.064	3.18 ± 0.075
RSLDENRLEIKYHNDLI [SMC1]	–	3.2 ± 0.29	2.78 ± 0.26	3.14 ± 0.24
INAVLVNDNDERAARVV [RPO31]	2.88 ± 0.12	3.04 ± 0.13	2.94 ± 0.097	2.56 ± 0.084
WRAHDSSIVAIDWASPE [YGL100W/SEH1]	2.55 ± 0.092	2.8 ± 0.1	2.83 ± 0.078	2.79 ± 0.068
TYGISVVDVALKYPELS [NUT1]	2.04 ± 0.057	2.42 ± 0.075	2.04 ± 0.078	2.6 ± 0.041
DAKSSAYSSRFQTPFRR [RPL5]	2.82 ± 0.067	2.83 ± 0.052	2.78 ± 0.054	2.91 ± 0.05
TAKPAFSFGAKPAEKNN [YJL041W/NSP1]	3.19 ± 0.11	3.35 ± 0.12	3.19 ± 0.11	3.4 ± 0.15
ILNDSLIYHLKDCAEVD [IRR1]	2.05 ± 0.056	2.28 ± 0.06	2.02 ± 0.09	1.71 ± 0.046
YFQQTTIDWVEAGLQLC [PRP8]	3.53 ± 0.11	3.19 ± 0.099	3.2 ± 0.064	3.04 ± 0.1
TNNGNDDNETENPNFWR [GRR1]	2.74 ± 0.066	3.16 ± 0.05	2.37 ± 0.053	2.75 ± 0.041
SKVREEVGDVCINELDN [RPO31]	3.15 ± 0.095	2.32 ± 0.06	2.84 ± 0.075	3.18 ± 0.065
MSETLPRSDDLEATWNF [CDC53]	3.05 ± 0.17	3.39 ± 0.15	–	2.81 ± 0.15
SRNNTLNVTPSKRPQLG [SIR4]	2.96 ± 0.1	2.97 ± 0.093	2.8 ± 0.096	2.85 ± 0.073
TNQLKSLKGLQSKLKDV [RPN8]	–	1.59 ± 0.23	2.62 ± 0.19	1.36 ± 0.13
WPIVNSKVYFNNQSKEK [RPN12]	2.87 ± 0.15	2.78 ± 0.15	2.67 ± 0.21	3.03 ± 0.13
SERIVDCIIRLPVKWET [FAS1]	2.3 ± 0.089	1.97 ± 0.083	1.75 ± 0.12	2.62 ± 0.056
GFTASVSNQENAGTDIV [MED1]	2.95 ± 0.14	2.91 ± 0.13	2.64 ± 0.16	3.07 ± 0.072
TTTLAFRFQGGIIVAVD [PRE2]	3.27 ± 0.096	3.07 ± 0.083	2.81 ± 0.072	3.26 ± 0.09
EITHPPSTTDDENGDKN [SWI3]	3.09 ± 0.074	3.07 ± 0.072	3.19 ± 0.055	3.31 ± 0.061
REDLNKAEYVDQYDAER [RPO31]	3.15 ± 0.1	3.11 ± 0.11	3.33 ± 0.092	3.34 ± 0.083
DVEIGRMPIMLRSNKCI [RET1]	1.23 ± 0.15	1.27 ± 0.11	1.14 ± 0.27	1.07 ± 0.11
EVHDLIGFITSGTYHLN [POP1]	2.69 ± 0.15	2.64 ± 0.14	2.11 ± 0.13	2.48 ± 0.11
LVGRKPAEHPFISAARY [RPC37]	2.23 ± 0.14	1.86 ± 0.074	2.08 ± 0.15	2.54 ± 0.084
GASIIQVIFEIFEISLQ [YML103C/NUP188]	1.53 ± 0.046	1.82 ± 0.044	2.1 ± 0.065	2.06 ± 0.043
SVKDYRPAEETEAQAEP [RPS3]	2.76 ± 0.065	3.07 ± 0.068	3.11 ± 0.041	2.93 ± 0.043
